From paper doi:10.1101/2021.10.29.466484, “Clamping of DNA shuts the condensin neck gate” (bioRxiv, 2021)

B2: Ycs4 (natural protein, S. cerevisiae)
chain: MSGFSLSEYLTKFQTTDRESYPRLQDPSRELNVIIDQLAVSPEQIDASPDSLEALIDLCHDFPHLTPKLQTQLSYLISSSLSNLSKDIKANLSSNVNFTEIGGLIPQWKRHLEEYGYLIQVLLTFLQDELHKVSSQSTNLNRSAKNSKNDSANVELFKRDCNQMENLLESITKLLEINLSKIFQTTPEKDLFIGLFTRPLFVLLEIEPVTKVSSLKMFIQRILAMCVKNHGQSSSIQSSLMTNLTYFLHLSVFNAELLKLLNDEYNYPQLTEDILKEISTRVFNAKDTTGPKAISNFLIKLSELSPGIMLRQMNLVITLLNNSSITLRCSVVEACGNIVAELAQDPQTMEHYKQQIAVLIELLEERFQDSNPYVRTKAIQGCSKICDLSSKFNKSKAKFTSLAVRSLQDRSSLVRRNSVKLLSKLLLKHPFKAIHGSQLRLSEWEEYLKGSESQLNSTLKKVESQETLNDTIERSLIEEEVEQDEGQCRTELEGSFNKSAELSRIENEVENINATNTSVLMKLKLMIVYYKDAISFIKEIHKSIELISNLLFSKNRNEVLESMDFLVLADAFDIELSEFGIKKMLHLVWMKGTNDEGTSISVHLIECYKQLFLTAPDSCNMQEKAAHIAKNLINLSIGASIADLASLEQLLGMMYEQKLIDQHVINILWAIYNSASKASMQKEQNVNNRDSEKGFSKEQIHGSIIILGMLSLADNEIALKGLESLLNIGLGAVGLKDLTLCRYSCLALERMVPKRSTIITKAINQELEDVAVKKLYAIIINYTKDNEYYPMCEQALSALFTISSKPDILATDLIREKTMMTFGKPEEEDSILSLEQSSRVVSLSQLLFIVGQVAIKTLVYLEKCEAEFKKRKIEAETRNGKVKNQGADVTNTTQDNGGDKELEMIGGTNEDDFTDAIQFVKENELLFGEKSILGKFCPIVEEIVSNSSRFSDPMLQRTATLCLEKLMCLSSKYCEKSLPLLITVMEKSPDPTIRSNAVLGLGDMAVCFNNLVDENTDYLYRRLHDENLMVQRTCLMTVTFLILAGQVKVKGQLGEMAKCLDNPDQGISDMCRLFFTELASKDNAIYNGFIDIFSNLSSDDLLGKESFKKIIKFLLTFIDKERHQKQLNEKLVGRLRKCETQKQWDDIAFVLNNLPYKNEDVTALLEQGFKVVSAKE
notes: Ycs4, HAWK subunit of budding yeast (S. cerevisiae) condensin, wild type

Experiments:
Details in all cases: both partners purified
Ycs4 = biological target: B2; assay: cryo-EM structure; condensin pentamer (Smc2, Smc4, Brn1, Ycs4, Ycg1) with 80 bp dsDNA, ADP and BeF3; separate maps of the head module and of Ycg1-DNA from one dataset
Smc4 [1] = biological target: T1, Smc4 (S. cerevisiae, UniProt Q12267 1-1418); assay: cryo-EM structure; condensin tetramer (Smc2, Smc4, Brn1, Ycs4) with 80 bp dsDNA, 5 mM ADP, 1 mM BeSO4, 10 mM NaF; TNT buffer (30 mM Tris/HCl, 60 mM NaCl, 1 mM TCEP, 2 mM MgCl2, pH 7.5); head module, Forms I and II
T1 construct: Smc4, SMC subunit of budding yeast (S. cerevisiae) condensin, wild type; Only the head domain and proximal coiled coil are resolved in the maps; also called SMC4-3xStrepII
T1 sequence: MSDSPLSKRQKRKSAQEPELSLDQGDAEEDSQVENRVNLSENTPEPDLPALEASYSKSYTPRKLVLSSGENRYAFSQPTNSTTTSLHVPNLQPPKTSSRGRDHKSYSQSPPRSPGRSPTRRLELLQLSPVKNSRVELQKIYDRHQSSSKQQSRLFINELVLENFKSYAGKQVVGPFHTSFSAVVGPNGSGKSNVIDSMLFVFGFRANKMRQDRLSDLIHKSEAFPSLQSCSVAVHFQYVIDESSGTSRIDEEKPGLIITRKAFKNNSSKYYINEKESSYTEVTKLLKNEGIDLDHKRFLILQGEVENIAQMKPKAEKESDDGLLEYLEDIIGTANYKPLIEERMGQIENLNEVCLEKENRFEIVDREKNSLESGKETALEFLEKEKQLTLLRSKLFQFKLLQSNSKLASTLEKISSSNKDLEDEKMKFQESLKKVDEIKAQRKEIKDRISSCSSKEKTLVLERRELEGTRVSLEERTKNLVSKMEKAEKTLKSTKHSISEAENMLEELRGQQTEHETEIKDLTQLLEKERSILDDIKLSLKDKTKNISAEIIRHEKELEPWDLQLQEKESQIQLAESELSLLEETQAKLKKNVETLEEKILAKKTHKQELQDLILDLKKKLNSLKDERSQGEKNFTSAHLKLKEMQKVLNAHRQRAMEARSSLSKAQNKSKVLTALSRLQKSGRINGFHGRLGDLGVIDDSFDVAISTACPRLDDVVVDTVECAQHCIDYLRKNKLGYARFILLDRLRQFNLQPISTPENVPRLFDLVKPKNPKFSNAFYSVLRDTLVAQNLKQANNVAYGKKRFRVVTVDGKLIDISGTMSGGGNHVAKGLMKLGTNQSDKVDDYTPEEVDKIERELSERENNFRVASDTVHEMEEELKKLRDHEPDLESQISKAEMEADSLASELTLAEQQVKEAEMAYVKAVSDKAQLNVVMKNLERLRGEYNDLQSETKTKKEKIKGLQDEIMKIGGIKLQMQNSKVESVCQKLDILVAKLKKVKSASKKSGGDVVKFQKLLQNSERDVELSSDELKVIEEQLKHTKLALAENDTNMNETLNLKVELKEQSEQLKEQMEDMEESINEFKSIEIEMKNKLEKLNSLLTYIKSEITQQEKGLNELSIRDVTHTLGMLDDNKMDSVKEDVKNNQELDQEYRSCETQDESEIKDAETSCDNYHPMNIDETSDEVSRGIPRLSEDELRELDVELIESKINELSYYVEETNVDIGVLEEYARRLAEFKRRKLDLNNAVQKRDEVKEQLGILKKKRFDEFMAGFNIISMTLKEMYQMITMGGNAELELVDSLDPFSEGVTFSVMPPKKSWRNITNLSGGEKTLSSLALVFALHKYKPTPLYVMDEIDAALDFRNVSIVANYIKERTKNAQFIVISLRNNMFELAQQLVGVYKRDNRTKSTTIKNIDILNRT

Smc4 [2] = biological target: T1, Smc4; assay: cryo-EM structure; condensin pentamer (Smc2, Smc4, Brn1, Ycs4, Ycg1) with 80 bp dsDNA, ADP and BeF3; separate maps of the head module and of Ycg1-DNA from one dataset

B1: Smc2 (natural protein, S. cerevisiae)
chain: MKVEELIIDGFKSYATRTVITDWDPQFNAITGLNGSGKSNILDAICFVLGIASMSTVRASSLQDLIYKRGQAGVTKASVTIVFDNTDKSNSPIGFTNSPQISVTRQVVLGGTSKYLINGHRAPQQSVLQLFQSVQLNINNPNFLIMQGKITKVLNMKPSEILSLIEEAAGTKMFEDRREKAERTMSKKETKLQENRTLLTEEIEPKLEKLRNEKRMFLEFQSTQTDLEKTERIVVSYEYYNIKHKHTSIRETLENGETRMKMLNEFVKKTSEEIDSLNEDVEEIKLQKEKELHKEGTISKLENKENGLLNEISRLKTSLSIKVENLNDTTEKSKALESEIASSSAKLIEKKSAYANTEKDYKMVQEQLSKQRDLYKRKEELVSTLTTGISSTGAADGGYNAQLAKAKTELNEVSLAIKKSSMKMELLKKELLTIEPKLKEATKDNELNVKHVKQCQETCDKLRARLVEYGFDPSRIKDLKQREDKLKSHYYQTCKNSEYLKRRVTNLEFNYTKPYPNFEASFVHGVVGQLFQIDNDNIRYATALQTCAGGRLFNVVVQDSQTATQLLERGRLRKRVTIIPLDKIYTRPISSQVLDLAKKIAPGKVELAINLIRFDESITKAMEFIFGNSLICEDPETAKKITFHPKIRARSITLQGDVYDPEGTLSGGSRNTSESLLVDIQKYNQIQKQIETIQADLNHVTEELQTQYATSQKTKTIQSDLNLSLHKLDLAKRNLDANPSSQIIARNEEILRDIGECENEIKTKQMSLKKCQEEVSTIEKDMKEYDSDKGSKLNELKKELKLLAKELEEQESESERKYDLFQNLELETEQLSSELDSNKTLLHNHLKSIESLKLENSDLEGKIRGVEDDLVTVQTELNEEKKRLMDIDDELNELETLIKKKQDEKKSSELELQKLVHDLNKYKSNTNNMEKIIEDLRQKHEFLEDFDLVRNIVKQNEGIDLDTYRERSKQLNEKFQELRKKVNPNIMNMIENVEKKEAALKTMIKTIEKDKMKIQETISKLNEYKRETLVKTWEKVTLDFGNIFADLLPNSFAKLVPCEGKDVTQGLEVKVKLGNIWKESLIELSGGQRSLIALSLIMALLQFRPAPMYILDEVDAALDLSHTQNIGHLIKTRFKGSQFIVVSLKEGMFANANRVFRTRFQDGTSVVSIM
notes: Smc2, SMC subunit of budding yeast (S. cerevisiae) condensin, wild type; Expressed from pGAL10-SMC2 together with the other subunits; Only the head domain and proximal coiled coil are resolved in the maps
binding result (Ycs4): binds | binding result (Smc4 [1]): binds

B2
binding result (Smc4 [2]): binds
